Target: T1, Purified His-tagged MYC (UniProt P01106 1-454)
T1 construct: MYC, purified recombinant protein bought from Origene; also called MYC (TP760019); source: bought: Origene (TP760019), purified
Assay: co-IP; in vitro: 5 ug of each purified protein mixed in 100 ul of 1% NP-40, 120 mM NaCl, 40 mM tris-HCl pH 7.4, 1.5 mM sodium orthovanadate, 50 mM sodium fluoride, 10 mM sodium pyrophosphate, protease inhibitors, 6 h at 4 °C, then immunoprecipitation
Details: both partners purified

T1 sequence (P01106 whole entry): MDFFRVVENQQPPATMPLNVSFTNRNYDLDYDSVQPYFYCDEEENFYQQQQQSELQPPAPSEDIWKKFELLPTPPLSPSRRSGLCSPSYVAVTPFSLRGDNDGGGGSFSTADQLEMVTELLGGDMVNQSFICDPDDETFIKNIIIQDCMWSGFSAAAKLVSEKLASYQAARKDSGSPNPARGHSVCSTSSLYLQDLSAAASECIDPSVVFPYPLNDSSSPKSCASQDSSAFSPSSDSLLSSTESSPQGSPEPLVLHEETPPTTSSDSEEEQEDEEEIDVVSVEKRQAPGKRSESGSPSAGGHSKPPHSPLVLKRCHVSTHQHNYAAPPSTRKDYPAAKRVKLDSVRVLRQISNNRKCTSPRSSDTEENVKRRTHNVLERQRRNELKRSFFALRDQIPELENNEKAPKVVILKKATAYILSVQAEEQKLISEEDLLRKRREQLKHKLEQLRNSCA

binding result: binds
B1: Purified GST-tagged HDAC3 (enzyme, UniProt O15379 1-428, looked up)
chain: MAKTVAYFYDPDVGNFHYGAGHPMKPHRLALTHSLVLHYGLYKKMIVFKPYQASQHDMCRFHSEDYIDFLQRVSPTNMQGFTKSLNAFNVGDDCPVFPGLFEFCSRYTGASLQGATQLNNKICDIAINWAGGLHHAKKFEASGFCYVNDIVIGILELLKYHPRVLYIDIDIHHGDGVQEAFYLTDRVMTVSFHKYGNYFFPGTGDMYEVGAESGRYYCLNVPLRDGIDDQSYKHLFQPVINQVVDFYQPTCIVLQCGADSLGCDRLGCFNLSIRGHGECVEYVKSFNIPLLVLGGGGYTVRNVARCWTYETSLLVEEAISEELPYSEYFEYFAPDFTLHPDVSTRIENQNSRQYLDQIRQTIFENLKMLNHAPSVQIHDVPADLLTYDRTDEADAEERGPEENYSRPEAPNEFYDGDHDNDKESDVEI
notes: Histone deacetylase 3, purified recombinant protein bought from Sino Biological; also called HDAC3 (11511-H20B); source: bought: Sino Biological (11511-H20B), purified
